B1: anti-hVEGF-A clone A033AM-19 (affinity-matured from A033) (antibody, V domains shown)
VH: EVELVQSGAEVKKPGSSVKVSCKASGGTFSDYSISWVRQAPGQGLEWMGGIIPIFGTPNYAQKFQGRVTITADESTSTAYMELSSLRSEDTAVYYCADGGAYCGGDCYSGYYYYGMDVWGQGTTVTVSS
VL: QSALTQPASVSGSPGQSITISCTGTSSDVGGYNLVSWYQQHPGKAPKLMIYQDNNKRPSGVSNRFSGSKSGNTASLTISGLQAEDEADYYCSYTNDSNSQVFGGGTKLTVL
notes: human IgG1 heavy chain constant region (CH1, hinge, CH2, CH3); as the light chain of m7 (identical LC); human Igλ constant region (hCλ) amplified from Ramos cell cDNA; Full-length human IgG1, λ; source: DT40 cells (subclone of A033 sorted after culture without TSA), secreted human IgG, purified
B2: anti-hSema3A clones from the L30H45(fff) single clone-derived library (three clones with identical HC and LC sequences) (antibody, V domains shown)
VH: EVQLLESGGGLVQPGGSLRLSCAASGFTFSSYWMSNEMSWVRQAPGKGLEWVSSISGGSTYYADSVKGRFTISRDNSKNTLYLQMNSLRAEDTAVYYCAKGYSGYDYYFDYWGQGTLVTVSS
VL: QSALTQPASVSGSPGQSITISCTGTSSDVGGYNYVSWYQQNPGKAPKLMIYDVSNRPSGISNRFSGSKSGNTASLTISGLQADDEADYYCTSYTNDSNSQVFGGGTKLTVL
notes: human IgG1 heavy chain constant region (CH1, hinge, CH2, CH3); human Igλ constant region (hCλ) amplified from Ramos cell cDNA; Full-length human IgG1, λ; source: DT40 L30H45(fff) cells treated with TSA for 86 days, selected on hSema3A-his-AP beads, limiting dilution cloning

Experiments:
[1] = target: T1, FLAG-tagged human vascular endothelial growth factor-A (FLAG-hVEGF-A) (Homo sapiens, UniProt P15692-4); assay: SPR; Biacore T200; mAb held by anti-hIgG capture antibodies amine-coupled to a CM5 chip; purified antigen serially diluted in HBS-EP+ (100, 33.3, 11.1, 3.7, 1.23, 0.412 nM) injected 240 s at 30 µL/min, 300 s dissociation; 1:1 Langmuir binding model with mass transfer; KD calculated as kd/ka; conditions: both partners purified
T1 construct: human vascular endothelial growth factor-A; The cell-based assays used bought recombinant hVEGF165 (Pepro Tech), not this construct

[2] = target: T2, histidine-tagged human semaphorin 3A fused with alkaline phosphatase (hSema3A-his-AP) (Homo sapiens, UniProt Q14563); assay: ELISA; antigen immobilised on MaxiSorp 384-well plates (62.5 ng/well), blocked with 1% BSA in PBS; DT40 culture supernatants 1 h at room temperature; detected by anti-hIgG-Fc HRP; conditions: one partner purified
T2 construct: human semaphorin 3A; The expressing cells were a gift from Dr. Yoshio Goshima; the construct is not described further; source: HEK293 cells, stably expressed, purified (HisTrap Excel column, gel filtration)
T2 sequence (Q14563 21-771): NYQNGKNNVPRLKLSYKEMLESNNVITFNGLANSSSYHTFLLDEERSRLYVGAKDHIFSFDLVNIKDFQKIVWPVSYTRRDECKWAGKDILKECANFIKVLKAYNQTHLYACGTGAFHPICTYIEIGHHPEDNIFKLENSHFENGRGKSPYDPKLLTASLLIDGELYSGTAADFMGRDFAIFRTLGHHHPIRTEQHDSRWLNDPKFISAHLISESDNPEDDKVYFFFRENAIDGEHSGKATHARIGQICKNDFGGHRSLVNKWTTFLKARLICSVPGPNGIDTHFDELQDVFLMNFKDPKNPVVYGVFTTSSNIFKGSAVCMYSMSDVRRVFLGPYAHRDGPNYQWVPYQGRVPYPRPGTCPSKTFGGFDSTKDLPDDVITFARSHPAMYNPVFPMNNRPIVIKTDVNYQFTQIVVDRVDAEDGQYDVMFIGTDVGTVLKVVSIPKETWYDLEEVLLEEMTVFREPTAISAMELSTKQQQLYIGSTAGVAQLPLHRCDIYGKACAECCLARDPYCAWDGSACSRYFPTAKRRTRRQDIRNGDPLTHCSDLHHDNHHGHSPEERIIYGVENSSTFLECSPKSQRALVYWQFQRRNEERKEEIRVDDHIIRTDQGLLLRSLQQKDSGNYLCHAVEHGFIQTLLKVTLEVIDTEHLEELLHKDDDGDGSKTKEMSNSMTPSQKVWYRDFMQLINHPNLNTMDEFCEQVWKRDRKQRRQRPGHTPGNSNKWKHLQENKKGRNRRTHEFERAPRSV

| Binder | Kd [1] | binding result [2] |
| --- | --- | --- |
| B1 | 0.0491 nM | – |
| B2 | – | binds |

Reference: publication PMC8166883 (Cellular and Molecular Immunology, 2020)
